Laboratory results from the Immune Epitope Database (IEDB).

Assays:
HLA-A*02:02 [1] = experiment: IEDB peptide-MHC binding, cellular MHC/competitive/fluorescence; ≥ and ≤ were set here for values at or beyond the usual limits of such assays
HLA-A*02:01 [2] = experiment: IEDB peptide-MHC binding, purified MHC/competitive/radioactivity; ≥ and ≤ were set here for values at or beyond the usual limits of such assays
HLA-A*68:02 [3] = experiment: as above
HLA-A*02:03 = experiment: as above
HLA-A*02:06 [4] = experiment: as above
HLA-A*02:01 [5] = experiment: IEDB peptide-MHC binding, cellular MHC/competitive/fluorescence; ≥ and ≤ were set here for values at or beyond the usual limits of such assays
HLA-A*68:02 [6] = experiment: as above
HLA-A*02:06 [7] = experiment: as above
HLA-A*02:02 [8] = experiment: IEDB peptide-MHC binding, purified MHC/competitive/radioactivity; ≥ and ≤ were set here for values at or beyond the usual limits of such assays
[9] = source organism: Vaccinia virus WR
[10] = source organism: Influenza A virus

Row | Sequence | IC50 (HLA-A*02:02 [1]; [9]) [µM] | IC50 (HLA-A*02:01 [2]; [9]) [µM] | IC50 (HLA-A*68:02 [3]; [9]) [µM] | IC50 (HLA-A*02:03; [9]) [µM] | IC50 (HLA-A*02:06 [4]; [9]) [µM] | IC50 (HLA-A*02:01 [5]; [9]) [µM] | IC50 (HLA-A*68:02 [6]; [9]) [µM] | other results
1 | NIYRLFTRCA | 9.89 | 0.81 | 0.25 | 0.138 | 0.023 | – | – | –
2 | SASDMQKFTI | 10.8 | – | 0.487 | 1.22 | 4.25 | 13.5 | – | –
3 | NTFVNFNSV | 5.02 | – | 0.0058 | 0.1 | 0.00035 | – | – | –
4 | ITLVVISVI | 15.1 | 0.551 | – | 1.81 | 1.03 | – | 6.03 | –
5 | MAAAKTPVIV | 6.01 | – | 1.21 | 0.156 | 3.63 | 8.47 | – | –
6 | VTLNRIKIA | 13.3 | 1.1 | – | 0.407 | 0.625 | – | 26.3 | –
7 | GVLIAGIIL | 5.24 | 0.545 | – | 1.04 | 0.951 | – | 16.9 | –
8 | FTDCRTIDA | 10.9 | 3.77 | 3.42 | 2.68 | 2.71 | – | – | –
9 | ITPTIEDDKI | 18.7 | – | 2.19 | 4.2 | 1.5 | 18.8 | – | –
10 | CTIVDSMII | 13.9 | – | 3.08 | 1.79 | 4.58 | 5.16 | – | –
11 | GIKNLKSLL | – | – | – | 2.62 | – | 54.5 | ≥ 70 | IC50 (HLA-A*02:06 [7]; [9]): 61.7 µM; IC50 (HLA-A*02:02 [8]; [9]): 2.14 µM
12 | RLRQDTEDIV | – | – | – | 0.284 | – | 5.95 | 35.5 | IC50 (HLA-A*02:06 [7]; [9]): 7.49 µM; IC50 (HLA-A*02:02 [8]; [9]): 0.134 µM
13 | IVAAVIIMA | 10.4 | 1.81 | 0.024 | 2.66 | 3.57 | – | – | –
14 | AVIIMAINV | 9.07 | 0.963 | 1.24 | 2.76 | 0.065 | – | – | –
15 | YIWIKNLET | 12.6 | – | – | 1.18 | 0.347 | – | 32 | –
16 | RTLFQQMRDVL | – | – | – | – | – | – | – | IC50 (HLA-A*02:01 [5]; [10]): 13.7 µM; IC50 (HLA-A*68:02 [6]; [10]): ≥ 70 µM; IC50 (HLA-A*02:06 [7]; [10]): ≥ 70 µM; IC50 (HLA-A*02:02 [8]; [10]): 1.89 µM; IC50 (HLA-A*02:03; [10]): 3.83 µM
17 | KLVETGFVI | 13.2 | – | 1.05 | 1.07 | 0.2 | 14.3 | – | –

Row | Sequence | IC50 (HLA-A*02:02 [1]; [9]) [µM] | IC50 (HLA-A*02:01 [2]; [9]) [µM] | IC50 (HLA-A*68:02 [3]; [9]) [µM] | IC50 (HLA-A*02:03; [9]) [µM] | IC50 (HLA-A*02:06 [4]; [9]) [µM] | IC50 (HLA-A*02:01 [5]; [9]) [µM] | IC50 (HLA-A*68:02 [6]; [9]) [µM] | other results
18 | EISSNDNAKI | 11.2 | 0.508 | 0.122 | 0.194 | 0.162 | – | – | –
19 | STFNMWREI | 5.82 | – | 0.02 | 0.713 | 0.095 | 5.67 | – | –
20 | CALVSDCAST | 6.41 | 0.149 | – | 0.146 | 2.6 | – | 52.9 | –
21 | ITRLEVIGL | 5.51 | 3.66 | 4.46 | 0.213 | 0.776 | – | – | –
22 | AIRAGYSIV | – | – | – | 0.00021 | – | 5.01 | 15.4 | IC50 (HLA-A*02:06 [7]; [9]): 8.06 µM; IC50 (HLA-A*02:02 [8]; [9]): 1.2 µM
23 | DISDVKVLAA | 33.8 | – | 4.98 | 2.2 | 4.61 | ≥ 70 | – | –
24 | KQNKFGDSPL | – | – | – | 0.216 | – | 5.55 | 31.6 | IC50 (HLA-A*02:06 [7]; [9]): 5.08 µM; IC50 (HLA-A*02:02 [8]; [9]): 0.09 µM
25 | NVKSKLLWFL | – | – | – | 0.633 | – | 33.2 | 7.3 | IC50 (HLA-A*02:06 [7]; [9]): 31.1 µM; IC50 (HLA-A*02:02 [8]; [9]): 2.29 µM
26 | GLCNYGGILI | – | – | – | 3.21 | – | 24.2 | 35.2 | IC50 (HLA-A*02:06 [7]; [9]): 5.03 µM; IC50 (HLA-A*02:02 [8]; [9]): 0.152 µM
27 | SLCPIRGWAI | – | – | – | – | – | – | – | IC50 (HLA-A*02:02 [1]; [10]): 5.52 µM; IC50 (HLA-A*68:02 [6]; [10]): 16.2 µM
28 | YLVQQESSFV | – | – | – | – | – | – | – | IC50 (HLA-A*02:02 [1]; source organism: SARS-CoV1): 12.7 µM; IC50 (HLA-A*02:01 [2]; source organism: SARS-CoV1): 0.076 µM; IC50 (HLA-A*68:02 [3]; source organism: SARS-CoV1): 3.41 µM; IC50 (HLA-A*02:03; source organism: SARS-CoV1): 0.017 µM; IC50 (HLA-A*02:06 [4]; source organism: SARS-CoV1): 0.386 µM
29 | DINVIGLIVI | 7.15 | 1.35 | 2.19 | 2.81 | 2.79 | – | – | –
30 | SVQLSNNKYV | – | – | – | 0.82 | – | 55 | 11.3 | IC50 (HLA-A*02:06 [7]; [9]): 8.83 µM; IC50 (HLA-A*02:02 [8]; [9]): 1.22 µM
31 | NVTYNIKPV | 22.8 | – | 0.376 | 0.153 | 0.855 | 6.36 | – | –
32 | NVMGMIGI | – | – | – | – | – | – | – | IC50 (HLA-A*02:01 [5]; [10]): 14.5 µM; IC50 (HLA-A*02:02 [1]; [10]): 5.92 µM; IC50 (HLA-A*68:02 [3]; [10]): 0.187 µM; IC50 (HLA-A*02:03; [10]): 4.81 µM; IC50 (HLA-A*02:06 [4]; [10]): 2.06 µM
33 | LIKTLSPAHL | – | – | – | 0.356 | – | 11.6 | 33.3 | IC50 (HLA-A*02:06 [7]; [9]): 10.2 µM; IC50 (HLA-A*02:02 [8]; [9]): 1.85 µM
34 | STIANSNII | 6.12 | – | 0.035 | 1.47 | 1.24 | 12.7 | – | –
